From article PMC4174979

Molecular target: WRN_(235–526) (human)
Experiment: SEC

Chain of WRN_(235–526) (domain or fragment) (Q14191 2-1432): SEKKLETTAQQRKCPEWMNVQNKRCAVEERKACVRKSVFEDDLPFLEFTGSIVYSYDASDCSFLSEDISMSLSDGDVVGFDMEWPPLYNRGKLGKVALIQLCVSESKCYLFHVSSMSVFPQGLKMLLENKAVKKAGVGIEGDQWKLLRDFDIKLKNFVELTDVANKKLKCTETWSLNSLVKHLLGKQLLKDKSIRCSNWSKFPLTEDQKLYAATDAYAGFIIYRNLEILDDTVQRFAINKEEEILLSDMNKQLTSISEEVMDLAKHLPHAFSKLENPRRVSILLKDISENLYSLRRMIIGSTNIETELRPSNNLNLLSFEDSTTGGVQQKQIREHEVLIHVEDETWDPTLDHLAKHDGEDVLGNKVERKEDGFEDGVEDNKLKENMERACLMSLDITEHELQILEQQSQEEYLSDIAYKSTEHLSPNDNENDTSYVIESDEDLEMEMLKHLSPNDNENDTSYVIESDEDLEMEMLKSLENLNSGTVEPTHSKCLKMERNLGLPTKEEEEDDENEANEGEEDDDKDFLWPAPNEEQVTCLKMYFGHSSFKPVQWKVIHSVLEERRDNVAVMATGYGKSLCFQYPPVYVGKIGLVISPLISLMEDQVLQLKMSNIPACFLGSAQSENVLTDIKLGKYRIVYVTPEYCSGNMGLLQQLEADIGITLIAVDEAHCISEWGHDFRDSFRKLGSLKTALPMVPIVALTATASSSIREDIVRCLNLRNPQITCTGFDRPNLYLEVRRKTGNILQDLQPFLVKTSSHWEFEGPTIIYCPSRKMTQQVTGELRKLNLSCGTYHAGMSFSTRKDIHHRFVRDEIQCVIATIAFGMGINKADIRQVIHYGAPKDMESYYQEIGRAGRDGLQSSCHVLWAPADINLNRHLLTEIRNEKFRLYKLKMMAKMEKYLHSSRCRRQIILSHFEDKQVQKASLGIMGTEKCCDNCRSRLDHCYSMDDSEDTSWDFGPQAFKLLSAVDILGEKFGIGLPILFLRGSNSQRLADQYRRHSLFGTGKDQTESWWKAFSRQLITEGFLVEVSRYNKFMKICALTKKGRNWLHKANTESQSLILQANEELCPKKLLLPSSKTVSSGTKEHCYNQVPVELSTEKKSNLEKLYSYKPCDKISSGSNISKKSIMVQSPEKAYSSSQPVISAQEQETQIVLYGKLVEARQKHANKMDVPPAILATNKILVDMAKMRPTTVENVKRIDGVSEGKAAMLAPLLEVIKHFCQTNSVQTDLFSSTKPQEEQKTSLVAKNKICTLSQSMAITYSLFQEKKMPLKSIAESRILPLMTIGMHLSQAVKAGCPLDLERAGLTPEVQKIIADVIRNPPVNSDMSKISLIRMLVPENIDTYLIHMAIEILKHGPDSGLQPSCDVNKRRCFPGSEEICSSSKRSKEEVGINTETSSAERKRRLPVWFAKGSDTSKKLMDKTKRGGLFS

## WRN_(235–526) (domain or fragment)
  stoichiometry N: 6
